# Results: article PMC5579567
# How the values were obtained:
# [1] = target: SgcE10, chymotrypsin digested (crystallised form) (Streptomyces globisporus); assay: crystal structure
# [2] = target: SgcE10, thioesterase (TE) of the 9-membered enediyne C-1027 biosynthetic machinery (Streptomyces globisporus); assay: SEC
stoichiometry N [1],stoichiometry N [2],Substance
4,,"SgcE10, chymotrypsin digested (crystallised form) (enzyme)"
,4,"SgcE10, thioesterase (TE) of the 9-membered enediyne C-1027 biosynthetic machinery (enzyme)"
